“Also recorded” adds a separate entry of the source.
B1: WT NRG1α (175-241): wild type human neuregulin 1 fragment, residues 175-241 of SEQ ID NO:4 (SEQ ID NO:5), entire EGF-like motif and α domain (protein)
chain: GTSHLVKCAEKEKTFCVNGGECFMVKDLSNPSRYLCKCQPGFTGARCTENVPMKVQNQEKAEELYQK
modifications: integrin-binding site within human neuregulin, residues 175-241of human neuregulin 1alpha, long version
B2: 3KE (175-241): NRG1α (175-241) with Lys181/Lys185/Lys187 mutated to Glu, SEQ ID NO:6 (3KE, long version) (protein)
chain: GTSHLVECAEEEETFCVNGGECFMVKDLSNPSRYLCKCQPGFTGARCTENVPMKVQNQEKAEELYQK
modifications: integrin-binding site within human neuregulin, residues 175-241of human neuregulin 1alpha, long version, 3KE mutant

Tests used:
[1] = biological target: T1, CHO cells that express human α6β4 (Homo sapiens, UniProt P16144+P23229); test: Cell adhesion assay, α6β4-CHO cells; assay type: cell-based; details: DMEM, 1 h at 37° C.
T1 construct: expressed in transfected cells; host or cells: CHO
T1 sequence (P23229 24-1130): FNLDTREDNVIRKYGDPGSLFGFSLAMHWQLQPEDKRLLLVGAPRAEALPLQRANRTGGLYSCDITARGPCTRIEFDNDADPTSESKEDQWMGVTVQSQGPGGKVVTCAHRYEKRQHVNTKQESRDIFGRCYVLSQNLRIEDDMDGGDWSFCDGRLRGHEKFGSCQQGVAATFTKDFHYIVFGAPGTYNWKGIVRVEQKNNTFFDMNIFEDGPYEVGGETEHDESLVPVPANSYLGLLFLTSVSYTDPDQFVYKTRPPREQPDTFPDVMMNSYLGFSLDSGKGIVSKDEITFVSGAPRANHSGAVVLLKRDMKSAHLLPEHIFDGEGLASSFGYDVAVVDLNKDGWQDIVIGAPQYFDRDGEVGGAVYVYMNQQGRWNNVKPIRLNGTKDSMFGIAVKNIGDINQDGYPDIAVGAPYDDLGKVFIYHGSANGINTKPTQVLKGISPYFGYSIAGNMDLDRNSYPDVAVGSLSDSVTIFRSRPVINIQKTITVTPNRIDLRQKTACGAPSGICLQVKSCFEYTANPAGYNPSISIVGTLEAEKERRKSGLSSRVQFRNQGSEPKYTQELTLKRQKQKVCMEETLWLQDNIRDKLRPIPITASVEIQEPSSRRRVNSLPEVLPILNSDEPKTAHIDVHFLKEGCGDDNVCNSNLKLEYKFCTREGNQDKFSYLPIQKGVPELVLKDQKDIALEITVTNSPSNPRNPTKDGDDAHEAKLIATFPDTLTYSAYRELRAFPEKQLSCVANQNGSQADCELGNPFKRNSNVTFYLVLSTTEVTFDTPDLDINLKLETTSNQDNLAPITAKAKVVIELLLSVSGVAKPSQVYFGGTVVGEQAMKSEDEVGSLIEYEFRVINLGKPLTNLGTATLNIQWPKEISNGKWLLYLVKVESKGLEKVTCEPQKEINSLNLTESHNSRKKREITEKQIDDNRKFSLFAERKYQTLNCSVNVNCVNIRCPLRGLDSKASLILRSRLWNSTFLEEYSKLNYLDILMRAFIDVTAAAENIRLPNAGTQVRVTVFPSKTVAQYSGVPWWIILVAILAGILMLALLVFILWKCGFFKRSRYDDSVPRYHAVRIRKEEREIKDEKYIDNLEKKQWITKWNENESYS
T1 sequence (P16144 28-1822): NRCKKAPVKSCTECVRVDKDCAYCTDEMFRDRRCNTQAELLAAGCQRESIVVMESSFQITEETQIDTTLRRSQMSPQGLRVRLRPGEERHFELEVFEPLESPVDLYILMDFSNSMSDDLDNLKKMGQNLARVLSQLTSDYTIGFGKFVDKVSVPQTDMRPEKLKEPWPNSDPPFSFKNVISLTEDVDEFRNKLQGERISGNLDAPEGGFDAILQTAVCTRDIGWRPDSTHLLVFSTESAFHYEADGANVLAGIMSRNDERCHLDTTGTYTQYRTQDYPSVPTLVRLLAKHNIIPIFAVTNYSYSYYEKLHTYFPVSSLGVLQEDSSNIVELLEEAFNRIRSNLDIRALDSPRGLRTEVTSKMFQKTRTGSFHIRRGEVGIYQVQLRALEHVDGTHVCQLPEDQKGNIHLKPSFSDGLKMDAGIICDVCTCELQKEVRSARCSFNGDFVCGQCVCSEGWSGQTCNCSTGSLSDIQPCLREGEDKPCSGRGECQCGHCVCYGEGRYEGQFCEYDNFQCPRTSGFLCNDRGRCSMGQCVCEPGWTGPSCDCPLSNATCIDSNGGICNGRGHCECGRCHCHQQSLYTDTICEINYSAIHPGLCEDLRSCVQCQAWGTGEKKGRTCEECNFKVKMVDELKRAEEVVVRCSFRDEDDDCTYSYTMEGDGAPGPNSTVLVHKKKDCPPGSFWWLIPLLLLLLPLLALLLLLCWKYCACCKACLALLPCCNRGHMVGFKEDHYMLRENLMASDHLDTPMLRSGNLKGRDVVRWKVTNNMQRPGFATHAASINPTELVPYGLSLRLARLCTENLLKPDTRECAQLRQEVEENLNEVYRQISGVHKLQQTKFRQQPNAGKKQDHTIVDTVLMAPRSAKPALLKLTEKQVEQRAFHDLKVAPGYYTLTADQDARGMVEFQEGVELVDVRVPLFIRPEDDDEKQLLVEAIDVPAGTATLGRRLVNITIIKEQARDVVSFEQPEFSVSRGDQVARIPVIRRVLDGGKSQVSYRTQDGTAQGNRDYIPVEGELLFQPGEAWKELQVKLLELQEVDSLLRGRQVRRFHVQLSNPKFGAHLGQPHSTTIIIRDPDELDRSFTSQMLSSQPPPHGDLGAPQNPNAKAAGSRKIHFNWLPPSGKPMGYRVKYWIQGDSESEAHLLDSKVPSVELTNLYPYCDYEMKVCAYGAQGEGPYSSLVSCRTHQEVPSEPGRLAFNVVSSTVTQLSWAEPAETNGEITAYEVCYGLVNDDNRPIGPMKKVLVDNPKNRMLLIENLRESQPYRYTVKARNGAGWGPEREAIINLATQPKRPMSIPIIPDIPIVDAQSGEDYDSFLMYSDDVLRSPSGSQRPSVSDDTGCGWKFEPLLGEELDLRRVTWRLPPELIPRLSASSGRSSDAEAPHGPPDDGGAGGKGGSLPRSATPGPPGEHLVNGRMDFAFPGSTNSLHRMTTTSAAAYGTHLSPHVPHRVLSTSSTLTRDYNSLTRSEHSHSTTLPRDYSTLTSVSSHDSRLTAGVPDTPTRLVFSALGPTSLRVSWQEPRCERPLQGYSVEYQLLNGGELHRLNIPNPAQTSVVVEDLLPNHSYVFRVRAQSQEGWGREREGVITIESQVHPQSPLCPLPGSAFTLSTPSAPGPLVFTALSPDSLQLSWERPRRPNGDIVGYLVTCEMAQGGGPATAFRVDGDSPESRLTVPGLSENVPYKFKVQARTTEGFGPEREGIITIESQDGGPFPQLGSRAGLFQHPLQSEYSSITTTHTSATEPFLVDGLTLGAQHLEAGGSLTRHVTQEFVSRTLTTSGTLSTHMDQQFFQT
Description: FIG. 17. CHO cells that express human α6β4 adhered to wt NRG1 (175-222) but not to the 3KE (175-222) mutant. Wells of 96-well microtiter plate were coated with wt or 3KE mutant NRG1 (175-222) and incubated with α6β4-CHO or β1-CHO cells in DMEM for 1 h at 37° C. as described herein. Bound cells were quantified.

[2] = biological target: T2, CHO cells that express human β1 (β1-CHO) (Homo sapiens, UniProt P05556); test: Cell adhesion assay, β1-CHO cells; assay type: cell-based
T2 construct: expressed in transfected cells; host or cells: CHO
T2 sequence (P05556 21-798): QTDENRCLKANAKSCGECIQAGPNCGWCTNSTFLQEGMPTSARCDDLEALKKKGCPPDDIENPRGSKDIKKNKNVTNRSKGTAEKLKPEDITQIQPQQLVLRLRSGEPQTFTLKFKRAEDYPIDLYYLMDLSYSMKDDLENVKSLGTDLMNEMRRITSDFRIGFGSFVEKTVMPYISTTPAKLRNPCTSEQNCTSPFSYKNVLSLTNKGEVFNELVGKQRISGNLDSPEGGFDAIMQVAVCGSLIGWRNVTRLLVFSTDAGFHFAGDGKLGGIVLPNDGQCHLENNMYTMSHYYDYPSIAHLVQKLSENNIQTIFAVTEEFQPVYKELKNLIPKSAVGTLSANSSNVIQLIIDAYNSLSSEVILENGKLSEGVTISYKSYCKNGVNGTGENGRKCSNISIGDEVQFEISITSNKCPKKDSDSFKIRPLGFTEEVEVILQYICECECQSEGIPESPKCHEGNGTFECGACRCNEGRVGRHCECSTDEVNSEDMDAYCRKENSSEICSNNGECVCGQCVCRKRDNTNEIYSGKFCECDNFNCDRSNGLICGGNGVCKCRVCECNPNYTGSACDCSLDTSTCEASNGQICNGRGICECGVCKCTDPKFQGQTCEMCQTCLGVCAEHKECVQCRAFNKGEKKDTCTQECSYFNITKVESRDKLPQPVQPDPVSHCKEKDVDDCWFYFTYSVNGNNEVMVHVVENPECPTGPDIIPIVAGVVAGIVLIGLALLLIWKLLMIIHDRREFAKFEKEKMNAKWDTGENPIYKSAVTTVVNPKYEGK
Description: FIG. 3. Adhesion of CHO cells that express human β1 (β1-CHO) or β1-3-1 (β1-3-1-CHO) to wt NRG1 (175-222). The β1-3-1 mutation changes the specificity of β1 integrins to that of β3 integrins. Cell adhesion was performed as described herein. β1-3-1-CHO cells adhered to wt NRG1 (175-222) and this binding was blocked by anti-human β1 antibody AIIB2, but not by purified mouse IgG (mIgG). BSA: BSA as a control was coated instead of NRG1 (175-222).
CHO or K562 cells expressing different recombinant integrins were previously known and available (Zhang et al. 1998; Tarui et al. 2006). Labeling of proteins with FITC or […] was performed according to manufacturers' instructions. Flow cytometry was performed as described above. Also, adhesion assays as described above were used to confirm the findings using flow cytometry.
Cell adhesion and soluble integrin binding assays were performed as described previously (Mori, et al., 2008). NRG1α (175-241) was immobilized to wells of 96-well microtiter plate overnight at 4° C. in 0.1 M carbonate buffer, pH 2 9.4. Remaining protein binding sites were blocked by incubating with 200 μl of 0.1% BSA in PBS for 60 min at room temperature. […] After rinsing the wells with the same buffer, bound integrins were determined by horseradish peroxidase (HRP)-conjugated anti-His tag mouse IgG and substrate 3,3′,5,5′-tetramethylbenzidine of HRP.

[3] = test system: mock-transfected K562 cells; test: Cell adhesion assay, mock-transfected K562 cells; assay type: cell-based, human
Description: FIG. 5. […] Adhesion assays was performed using αvβ3-K562 (left) or mock transfected cells (right) as described herein. The data is shown as means+/−SEM of triplicate experiments.
Cell adhesion and soluble integrin binding assays were performed as described previously (Mori, et al., 2008). NRG1α (175-241) was immobilized to wells of 96-well microtiter plate overnight at 4° C. in 0.1 M carbonate buffer, pH 2 9.4. Remaining protein binding sites were blocked by incubating with 200 μl of 0.1% BSA in PBS for 60 min at room temperature. Wells were then incubated with soluble integrin αvβ3 in 50 μl in Hepes-Tyrode's buffer supplemented with 1 mM Mn2+ at room temperature for 60 min. After rinsing the wells with the same buffer, bound integrins were determined by horseradish peroxidase (HRP)-conjugated anti-His tag mouse IgG and substrate 3,3′,5,5′-tetramethylbenzidine of HRP.

[4] = biological target: T3, Recombinant human ErbB3 Fc chimera (Homo sapiens, UniProt P21860); test: Competitive binding assay on immobilized ErbB3; details: biotin labeled WT 20 nM
T3 construct: Recombinant soluble ErbB3 Fc fusion protein was coated onto well of 96-well microtiter plate; purchased R&D Systems
T3 sequence (P21860 20-643 limits assumed, change not shown): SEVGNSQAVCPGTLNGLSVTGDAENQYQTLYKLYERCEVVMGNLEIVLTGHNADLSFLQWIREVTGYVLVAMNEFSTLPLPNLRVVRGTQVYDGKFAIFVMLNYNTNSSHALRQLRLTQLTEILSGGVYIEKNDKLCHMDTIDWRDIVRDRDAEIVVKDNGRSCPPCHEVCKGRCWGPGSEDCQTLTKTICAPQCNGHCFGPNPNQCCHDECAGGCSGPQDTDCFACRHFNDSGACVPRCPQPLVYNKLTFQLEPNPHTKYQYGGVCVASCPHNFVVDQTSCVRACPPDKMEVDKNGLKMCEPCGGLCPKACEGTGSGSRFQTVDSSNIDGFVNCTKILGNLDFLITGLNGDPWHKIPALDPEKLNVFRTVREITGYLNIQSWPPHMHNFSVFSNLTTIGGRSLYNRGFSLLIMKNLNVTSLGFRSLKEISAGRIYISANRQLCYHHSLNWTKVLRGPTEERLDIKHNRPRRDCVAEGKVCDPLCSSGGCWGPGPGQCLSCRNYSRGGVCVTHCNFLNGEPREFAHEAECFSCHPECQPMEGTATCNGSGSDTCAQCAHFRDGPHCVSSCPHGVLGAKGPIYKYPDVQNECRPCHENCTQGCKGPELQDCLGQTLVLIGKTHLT
Description: FIG. 20. The 3KE mutant of NRG1α (175-241) binds to ErbB3. a). Binding of the 3KE mutant of NRG1α (175-241) to recombinant ErbB3. Recombinant soluble ErbB3 Fc fusion protein (R&D system) was coated onto wells of 96-well microtiter plate (1 μg/ml). NRG1α (175-241) WT or 3KE (175-241) mutant was added to the wells and incubated for 1 h at room temperature. GST was used as a control. After washing the wells, bound GST NRG1α (175-241) was determined by using anti-GST antibody HRP conjugate. […] Competitive binding assay. Recombinant soluble ErbB3 Fc fusion protein was coated onto well of 96-well microtiter plate (1 μg/ml). Binding of biotin labeled NRG1α (175-241) WT (20 nM) in the presence of increasing concentrations of NRG1α (175-241) WT, 3KE (175-241) or GST. After washing the wells, bound biotin labeled NRG1α (175-241) WT was determined by using streptavidin HRP conjugate.
GST-fusion WT NRG1α (175-241) was biotinylated by using EZ-Link Sulfo-NHS-LC-Biotin (Pierce) as described in the manufacturer's instructions. Briefly, GST-fusion WT NRG1α (175-241) was incubated with sulfo-NHS-LCBiotin for 1 hour on ice, and remaining free sulfo-NHS-LC-Biotin was quenched with Tris-HCl buffer pH 8.0. Recombinant human ErbB3 Fc chimera (R&D Systems) was immobilized to wells of 96-well microtiter plate at 1 μg/ml coating concentration in 0.1 M NaHCO3, pH9.4 overnight at 4° C., and the remaining protein binding sites were blocked by incubating with 0.1% BSA. Wells were then incubated with biotinylated GST fusion NRG1α (175-241) in the presence of non-labeled GST, GST-WT NRG1α (175-241) or GST-3KE (175-241) for 3 h at room temperature. Bound biotinylated GST-fusion NRG1α (175-241) WT to wells was determined with streptavidin HRP conjugate and HRP substrate at 490 nm.

MCF-7 cells = test: Western blot analysis of NRG1 signaling in MCF-7 cells; assay type: cell-based, human; details: 2.5 nM
Description: FIG. 22. Effect of the 3KE mutation on NRG1 signaling. The 3KE mutant of NRG1α (175-241) is defective in inducing ErbB3 phosphorylation, AKT activation and ERK1/2 activation. MCF-7 cells were serum-starved overnight and stimulated with 2.5 nM WT and the 3KE mutant of NRG1α (175-241) at indicated time points. Cell lysates were analyzed by western blotting. […] Data are shown with signals at time 0 as 1.
MCF-7 cells grown to confluence were serum-starved in serum-free medium overnight, and then treated with WT or 3KE mutant NRG1α (175-241) (2.5 nM) for 5 min to 6 h at 37° C. Cells were washed with ice-cold PBS once, and lysed with the lysis buffer (20 mM HEPES (pH 7.4), 100 mM NaCl, 10% Glycerol, 1% NP-40, 1 mM MgCl2, 5 mM EDTA, 0.5% Triton X-100, 1 mM phenylmethylsulfonyl fluoride, 20 mM NaF, 1 mM Na3VO4, protease inhibitor cocktail (Sigma-Aldrich)). Protein concentrations in the cell lysates were determined using BCA protein assay (Pierce). Equal amounts of cell proteins were analyzed by SDS-PAGE and transferred onto 0.45 μm pore-size polyvinylidene fluoride membrane (Milipore, Birellica, Mass.). The membrane was incubated with primary antibodies, then HRP-conjugated secondary antibody and enhanced chemiluminescence detection reagents (Pierce).

Molecule	Adhesion of α6β4-CHO cells to the immobilized protein [1]	Adhesion of β1-CHO cells to the immobilized protein [2]	Adhesion of mock-transfected K562 cells to the immobilized protein [3]	Competition for binding of biotinylated WT NRG1α (175-241) to immobilized soluble ErbB3 [4]	AKT activation (phosphorylation) in MCF-7 cells (MCF-7 cells)	ERK1/2 activation (phosphorylation) in MCF-7 cells (MCF-7 cells)	ErbB3 phosphorylation in MCF-7 cells (MCF-7 cells)	Competition for binding of biotinylated WT NRG1α (175-241) to immobilized soluble ErbB3 ([4]; listed as 3KE NRG1α (175-241))	Competition for binding of biotinylated WT NRG1α (175-241) to immobilized soluble ErbB3 ([4]; listed as 3KE mutant of NRG1α (175-241))
3KE (175-222): NRG1 (175-222) with Lys181/Lys185/Lys187 mutated to Glu; GTSHLVECAEEEETFCVNGGECFMVKDLSNPSRYLCKCQPGFTGARCT (SEQ ID NO:11) (integrin-binding site within human neuregulin, 3KE mutant, short version)	did not adhere	–	–	–	–	–	–	–	–
wt NRG1 (175-222): wild type human neuregulin 1 fragment, EGF-like domain, residues 175-222 of SEQ ID NO:4 (SEQ ID NO:3) (GTSHLVKCAEKEKTFCVNGGECFMVKDLSNPSRYLCKCQPGFTGARCT; integrin-binding site within human neuregulin 1 EGF-like region and portion of alpha domain, residues 175-222 of human neuregulin 1 alpha) [reference compound]	adhere	did not	did not	–	–	–	–	–	–
B1	–	did not	did not	at comparable levels	markedly induced phosphorylation	markedly induced phosphorylation	markedly induced phosphorylation	–	–
B2	–	–	–	–	little or no AKT activation	much lower levels than WT NRG1α (175-241); also recorded: only weakly induced phosphorylation	much lower levels than WT NRG1α (175-241); also recorded: only weakly induced phosphorylation	at comparable levels	binds to ErbB3 at levels comparable to WT NRG1α (175-241)

Reference: patent US20110212108A1, “NEUREGULIN/ERBB SIGNALING AND INTEGRIN” (THE REGENTS OF THE UNIVERSITY OF CALIFORNIA, priority 2008, published 2011)
